Data as given in US20250304693A1.

How the values were obtained:
[1] = target: human BTLA (B- and T-lymphocyte attenuator) on cells (human) (UniProt Q7Z6A9); experiment: cell-based or functional assay
[2] = target: recombinant human BTLA (human) (UniProt Q7Z6A9); experiment: ELISA on recombinant human BTLA
[3] = target: human BTLA (B- and T-lymphocyte attenuator) on cells (human) (UniProt Q7Z6A9); experiment: FACS on HEK293T.hBTLA cells, AF647 anti-human IgG Fc detection
[4] = target: cynomolgus BTLA on cells (cynomolgus); experiment: FACS on Expi293.cynoBTLA cells, AF647 anti-human IgG Fc detection
cynomolgus BTLA on cells (cynomolgus), sequence (chain, as listed by the source): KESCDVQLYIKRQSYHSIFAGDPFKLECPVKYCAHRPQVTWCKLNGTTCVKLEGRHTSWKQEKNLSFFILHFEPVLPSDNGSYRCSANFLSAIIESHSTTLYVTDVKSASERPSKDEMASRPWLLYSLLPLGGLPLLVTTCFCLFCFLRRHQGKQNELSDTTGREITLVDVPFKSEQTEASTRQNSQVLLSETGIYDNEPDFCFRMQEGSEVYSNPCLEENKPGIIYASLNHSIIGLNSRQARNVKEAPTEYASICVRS

[5] = target: human BTLA (B- and T-lymphocyte attenuator) on cells (human) (UniProt Q7Z6A9); experiment: FACS competition on HEK293T.hBTLA cells; competitor hrHVEM-His-DL650
[6] = target: human BTLA (B- and T-lymphocyte attenuator) on cells (human) (UniProt Q7Z6A9); experiment: FACS competition on HEK293.BTLA cells; competitor DL650-conjugated soluble HVEM
[7] = target: human BTLA (B- and T-lymphocyte attenuator) on cells (human) (UniProt Q7Z6A9); experiment: FACS on HEK293 cells overexpressing human BTLA, AF647 anti-human IgG Fc detection
[8] = target: cynomolgus BTLA on cells (cynomolgus); experiment: FACS on Expi293 cells overexpressing cynomolgus BTLA, AF647 anti-human IgG Fc detection
[9] = target: human BTLA (B- and T-lymphocyte attenuator) on cells (human) (UniProt Q7Z6A9); experiment: FACS, primary human T cells, donor 149, AF647 anti-human IgG Fc secondary antibody
[10] = target: human BTLA (B- and T-lymphocyte attenuator) on cells (human) (UniProt Q7Z6A9); experiment: FACS, primary human B cells, donor 149, AF647 anti-human IgG Fc secondary antibody
[11] = target: human BTLA (B- and T-lymphocyte attenuator) on cells (human) (UniProt Q7Z6A9); experiment: FACS, primary human T cells, donor 1709, AF647 anti-human IgG Fc secondary antibody
[12] = target: human BTLA (B- and T-lymphocyte attenuator) on cells (human) (UniProt Q7Z6A9); experiment: FACS, primary human B cells, donor 1709, AF647 anti-human IgG Fc secondary antibody

human BTLA (B- and T-lymphocyte attenuator) on cells (human), sequence (Q7Z6A9 31-289): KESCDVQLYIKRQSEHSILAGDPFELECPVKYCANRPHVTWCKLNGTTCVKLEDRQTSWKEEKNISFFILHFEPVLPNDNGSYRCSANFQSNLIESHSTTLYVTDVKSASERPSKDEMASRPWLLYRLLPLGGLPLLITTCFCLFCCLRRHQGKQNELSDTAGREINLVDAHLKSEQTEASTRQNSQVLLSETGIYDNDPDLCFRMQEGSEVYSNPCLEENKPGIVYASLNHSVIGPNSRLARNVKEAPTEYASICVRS
recombinant human BTLA (human), sequence (Q7Z6A9 31-157 limits assumed): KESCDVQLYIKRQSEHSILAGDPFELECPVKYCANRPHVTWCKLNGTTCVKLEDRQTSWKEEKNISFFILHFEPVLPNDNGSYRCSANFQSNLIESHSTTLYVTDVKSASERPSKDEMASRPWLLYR

B1: JS004 (antibody, INN chains, looked up, V domains shown)
VH: QVQLVQSGAEVKKPGASVKLSCKASGYNFKHTYAHWVRQAPGQGLEWIGRIDPANGNTKYDPKFQGRATMTADTASNTAYLELSSLRSEDTAVYYCVADHYGSSLLDYWGQGTLVTVSS
VL: DVVMTQTPLSLSVTPGQPASISCKSSQSLLDSDGKTYLNWFQQRPGQSPRRLIYLVSKLDSGVPDRFSGSGSGTDFTLKISRVEAEDVGVYYCWQGTYFPYTFGQGTKLEIK
Work on B1 yielded a BTLA-HVEM blockade reporter assay, EC50 [1] of 10.4 nM, a Reporter EC50 [1] of 13.1 nM and an EC50 [2] of 2.43 nM. It also gave an EC50 [3] of 5.97 nM, an EC50 [4] of 5.25 nM and an IC50 [5] of 1.47 nM. For the same binder, the IC50 [6] was 4.32 nM, the EC50 [7] was 0.804 nM and the EC50 [8] was 0.561 nM. It also gave an EC50 [9] of 1.3 nM, an Emax(%) [9] of 97% and an EC50 [10] of 0.19 nM. It also gave an Emax(%) [10] of 73%, an EC50 [11] of 1.1 nM and an Emax(%) [11] of 56%. The EC50 [12] was 0.19 nM and the Emax(%) [12] was 82%.
